Measurements taken from the Human Domainome abundance scans (Beltran et al. 2025).
± gives the uncertainty stated by the source.

B1: Chromodomain-helicase-DNA-binding protein 5, residues 338 to 390; numbered along this chain, Q8TDI0 (parent)
chain: YETDHQDYCEVCQQGGEIILCDTCPRAYHLVCLDPELEKAPEGKWSCPHCEKE

Variants of: B1
Experiment: abundance fitness (aPCA) (normalised: wild type 0, dead -1); higher = more abundant; growth selection in yeast, the domain comes from the species named
Settings: Homo sapiens

In order of rising abundance fitness:
1. C24D  -1.16 ± 0.35
2. C24N  -1.15 ± 0.48
3. C12S  -1.04 ± 0.13
4. C12W  -1.02 ± 0.16
5. C24E  -0.979 ± 0.21
6. C24V  -0.979 ± 0.16
7. C24K  -0.917 ± 0.23
8. C12L  -0.901 ± 0.1
9. C24I  -0.88 ± 0.35
10. C24Q  -0.879 ± 0.21
11. R26P  -0.87 ± 0.23
12. P25H  -0.833 ± 0.43
13. C24R  -0.804 ± 0.12
14. C24Y  -0.784 ± 0.16
15. C24M  -0.772 ± 0.2
16. C24S  -0.753 ± 0.13
17. C24W  -0.736 ± 0.14
18. C24L  -0.682 ± 0.13
19. C12M  -0.671 ± 0.13
20. D22F  -0.597 ± 0.21
21. C24T  -0.586 ± 0.19
22. C24F  -0.567 ± 0.29
23. G15P  -0.553 ± 0.19
24. I18C  -0.508 ± 0.15
25. I18E  -0.454 ± 0.19
26. E17P  -0.445 ± 0.17
27. C24P  -0.437 ± 0.34
28. R26T  -0.436 ± 0.26
29. E17H  -0.435 ± 0.32
30. D22C  -0.432 ± 0.15
31. G15I  -0.414 ± 0.39
32. E17Q  -0.377 ± 0.21
33. D22W  -0.373 ± 0.17
34. E17V  -0.358 ± 0.1
35. E17S  -0.354 ± 0.13
36. G16C  -0.336 ± 0.27
37. R26D  -0.296 ± 0.16
38. P25E  -0.287 ± 0.21
39. I18V  -0.286 ± 0.12
40. P25C  -0.278 ± 0.3
41. D22S  -0.244 ± 0.12
42. I18P  -0.228 ± 0.17
43. E17F  -0.213 ± 0.18
44. R26F  -0.211 ± 0.17
45. G15L  -0.209 ± 0.14
46. R26V  -0.207 ± 0.13
47. G16I  -0.195 ± 0.28
48. E17R  -0.189 ± 0.1
49. D22M  -0.185 ± 0.14
50. E17D  -0.182 ± 0.16
51. R26W  -0.18 ± 0.14
52. D22I  -0.177 ± 0.21
53. I18D  -0.172 ± 0.17
54. D22K  -0.171 ± 0.19
55. G16V  -0.17 ± 0.1
56. G15D  -0.167 ± 0.18
57. P25M  -0.167 ± 0.2
58. P25L  -0.157 ± 0.13
59. R26Y  -0.144 ± 0.19
60. G15V  -0.143 ± 0.12
61. G15W  -0.136 ± 0.14
62. P25V  -0.124 ± 0.12
63. L20E  -0.119 ± 0.16
64. G15E  -0.112 ± 0.16
65. E17T  -0.109 ± 0.19
66. P25R  -0.107 ± 0.12
67. E17C  -0.105 ± 0.13
68. G15Q  -0.103 ± 0.15
69. D22E  -0.101 ± 0.2
70. P25S  -0.1 ± 0.14
71. I18L  -0.098 ± 0.1
72. E17L  -0.096 ± 0.12
73. L20I  -0.095 ± 0.15
74. P25Q  -0.093 ± 0.23
75. P25N  -0.084 ± 0.22
76. P25W  -0.081 ± 0.16
77. P25Y  -0.08 ± 0.34
78. D22H  -0.078 ± 0.24
79. E17G  -0.07 ± 0.09
80. D22R  -0.067 ± 0.1
81. D22L  -0.059 ± 0.12
82. R26I  -0.059 ± 0.19
83. I18F  -0.058 ± 0.16
84. V11W  -0.038 ± 0.13
85. G16A  -0.037 ± 0.11
86. R26G  -0.029 ± 0.089
87. I18W  -0.02 ± 0.12
88. D22N  -0.015 ± 0.14
89. G15T  -0.014 ± 0.14
90. V11N  -0.013 ± 0.14
91. P25G  -0.001 ± 0.11
92. R26S  0.002 ± 0.1
93. I18M  0.007 ± 0.14
94. R26A  0.009 ± 0.13
95. R26C  0.012 ± 0.15
96. V11D  0.018 ± 0.15
97. G15C  0.021 ± 0.14
98. I18R  0.021 ± 0.1
99. I18T  0.021 ± 0.15
100. G16E  0.027 ± 0.11
101. I18H  0.03 ± 0.18
102. V11Y  0.033 ± 0.14
103. I18N  0.039 ± 0.22
104. I18G  0.047 ± 0.097
105. L20V  0.051 ± 0.1
106. P25T  0.057 ± 0.16
107. V11P  0.061 ± 0.11
108. P25I  0.064 ± 0.24
109. I18S  0.065 ± 0.11
110. L20F  0.078 ± 0.14
111. G15Y  0.083 ± 0.17
112. D22Y  0.088 ± 0.21
113. L20N  0.091 ± 0.16
114. R26K  0.094 ± 0.17
115. V11A  0.095 ± 0.1
116. G16R  0.098 ± 0.1
117. L20K  0.099 ± 0.14
118. E17M  0.1 ± 0.18
119. E17K  0.105 ± 0.16
120. P25K  0.109 ± 0.21
121. D22P  0.111 ± 0.13
122. G16S  0.114 ± 0.13
123. G15N  0.116 ± 0.19
124. L20D  0.127 ± 0.17
125. I18K  0.137 ± 0.22
126. L20A  0.139 ± 0.12
127. G15R  0.141 ± 0.09
128. G15M  0.143 ± 0.2
129. R26M  0.144 ± 0.14
130. I18Y  0.145 ± 0.18
131. D22A  0.149 ± 0.15
132. R26L  0.154 ± 0.12
133. G15K  0.155 ± 0.16
134. L20Y  0.169 ± 0.15
135. G15A  0.176 ± 0.13
136. I18A  0.177 ± 0.12
137. V11C  0.179 ± 0.17
138. G16Q  0.183 ± 0.23
139. D22T  0.187 ± 0.17
140. E17W  0.188 ± 0.14
141. G16Y  0.193 ± 0.2
142. E17N  0.2 ± 0.2
143. R26Q  0.205 ± 0.16
144. L20H  0.224 ± 0.15
145. E17I  0.227 ± 0.21
146. L20S  0.233 ± 0.1
147. L20P  0.234 ± 0.14
148. G16L  0.239 ± 0.11
149. V11L  0.245 ± 0.093
150. G16M  0.255 ± 0.14
151. L20T  0.258 ± 0.14
152. G16N  0.259 ± 0.19
153. G16T  0.265 ± 0.13
154. L20R  0.266 ± 0.092
155. V11S  0.27 ± 0.09
156. I18Q  0.28 ± 0.18
157. L20G  0.297 ± 0.087
158. V11T  0.341 ± 0.11
159. L20M  0.371 ± 0.17
160. V11G  0.376 ± 0.094
161. V11E  0.397 ± 0.1
162. L20Q  0.414 ± 0.16
163. G16H  0.435 ± 0.22
164. V11M  0.459 ± 0.11
165. V11K  0.481 ± 0.13
166. R26H  0.493 ± 0.19
167. V11H  0.691 ± 0.15
